Assay results published in patent US20190185537A1 (AstraZeneca / MedImmune, published 2019).
Numbered stars: 1 amine (or outer) side, 2 acyl side, 3 side chain; on linkers, the order of the positions; unused ones are H or OH. Side chains are listed from the residue outwards. Ends that are not written are not given here. * marks the point of attachment. γGlu = O=C(O)[C@H](CCC(=O)[*:2])N[*:1]; Palmitoyl = CCCCCCCCCCCCCCCC(=O)*

T1: human glucose-dependent insulinotropic peptide (gastric inhibitory polypeptide) receptor (human) (UniProt P48546)
T1 sequence (looked up): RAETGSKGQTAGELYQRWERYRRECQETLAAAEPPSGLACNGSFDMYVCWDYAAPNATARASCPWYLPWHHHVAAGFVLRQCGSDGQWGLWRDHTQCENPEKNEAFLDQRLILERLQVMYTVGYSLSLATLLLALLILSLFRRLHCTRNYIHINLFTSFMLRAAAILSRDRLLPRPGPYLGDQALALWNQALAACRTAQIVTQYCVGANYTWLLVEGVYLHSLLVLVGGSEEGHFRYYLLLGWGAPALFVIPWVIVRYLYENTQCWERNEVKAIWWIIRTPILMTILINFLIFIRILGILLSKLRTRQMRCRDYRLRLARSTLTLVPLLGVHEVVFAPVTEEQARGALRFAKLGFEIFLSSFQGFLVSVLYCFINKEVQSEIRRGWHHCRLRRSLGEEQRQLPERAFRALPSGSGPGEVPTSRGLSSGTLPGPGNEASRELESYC


Tests used:
Assay in all cases: cell-based or functional assay
human glucagon receptor = human glucagon receptor (human, UniProt P47871 26-477)
human GLP-1 receptor = human GLP-1 receptor (human, UniProt P43220 24-463)
[1] = target: T1, human glucose-dependent insulinotropic peptide (gastric inhibitory polypeptide) receptor (human)

Sequence of human glucagon receptor (P47871 26-477): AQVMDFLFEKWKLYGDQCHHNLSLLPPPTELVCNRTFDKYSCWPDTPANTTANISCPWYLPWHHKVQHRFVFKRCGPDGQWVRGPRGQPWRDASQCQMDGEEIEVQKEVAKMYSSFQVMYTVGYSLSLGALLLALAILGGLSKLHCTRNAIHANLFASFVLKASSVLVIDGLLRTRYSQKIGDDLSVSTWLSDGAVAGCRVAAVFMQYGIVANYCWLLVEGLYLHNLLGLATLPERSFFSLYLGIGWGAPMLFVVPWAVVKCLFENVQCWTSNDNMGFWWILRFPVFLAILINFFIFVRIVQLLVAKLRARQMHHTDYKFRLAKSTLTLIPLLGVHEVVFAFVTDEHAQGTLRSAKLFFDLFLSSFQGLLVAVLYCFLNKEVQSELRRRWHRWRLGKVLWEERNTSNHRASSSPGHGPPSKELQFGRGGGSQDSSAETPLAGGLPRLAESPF
Sequence of human GLP-1 receptor (P43220 24-463): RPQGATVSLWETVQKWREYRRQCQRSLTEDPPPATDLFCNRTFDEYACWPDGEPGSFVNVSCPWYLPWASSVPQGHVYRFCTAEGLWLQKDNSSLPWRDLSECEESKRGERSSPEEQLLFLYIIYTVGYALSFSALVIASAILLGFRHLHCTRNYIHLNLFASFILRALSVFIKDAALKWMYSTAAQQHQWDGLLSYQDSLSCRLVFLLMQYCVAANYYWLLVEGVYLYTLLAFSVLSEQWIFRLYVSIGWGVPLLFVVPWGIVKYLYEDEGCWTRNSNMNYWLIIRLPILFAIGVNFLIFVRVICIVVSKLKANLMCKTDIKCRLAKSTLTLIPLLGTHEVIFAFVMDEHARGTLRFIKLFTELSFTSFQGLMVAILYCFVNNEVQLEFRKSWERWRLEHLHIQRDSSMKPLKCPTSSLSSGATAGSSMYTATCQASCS

Row | Binder | cAMP EC50 (assay 1) (human glucagon receptor) [nM] | cAMP EC50 (assay 1) (human GLP-1 receptor) [nM] | cAMP EC50 (assay 1) [1] [nM]
1 | HGQGTFTSDYSKYLDSK([γGlu-Palmitoyl])RAEDFVEWLVAGG-NH2 (N-terminus assumed; SMILES CCCCCCCCCCCCCCCC(=O)N[C@@H](CCC(=O)NCCCC[C@H](NC(=O)[C@H](CO)NC(=O)[C@H](CC(=O)O)NC(=O)[C@H](CC(C)C)NC(=O)[C@H](Cc1ccc(O)cc1)NC(=O)[C@H](CCCCN)NC(=O)[C@H](CO)NC(=O)[C@H](Cc1ccc(O)cc1)NC(=O)[C@H](CC(=O)O)NC(=O)[C@H](CO)NC(=O)[C@@H](NC(=O)[C@H](Cc1ccccc1)NC(=O)[C@@H](NC(=O)CNC(=O)[C@H](CCC(N)=O)NC(=O)CNC(=O)[C@@H](N)Cc1c[nH]cn1)[C@@H](C)O)[C@@H](C)O)C(=O)N[C@@H](CCCNC(=N)N)C(=O)N[C@@H](C)C(=O)N[C@@H](CCC(=O)O)C(=O)N[C@@H](CC(=O)O)C(=O)N[C@@H](Cc1ccccc1)C(=O)N[C@H](C(=O)N[C@@H](CCC(=O)O)C(=O)N[C@@H](Cc1c[nH]c2ccccc12)C(=O)N[C@@H](CC(C)C)C(=O)N[C@H](C(=O)N[C@@H](C)C(=O)NCC(=O)NCC(N)=O)C(C)C)C(C)C)C(=O)O) [g680] | 3.68 | 0.195 | 96.7
2 | HSEGTFTSDYSKYLDSK([γGlu-Palmitoyl])RAEDFVEWLVAGG-NH2 (N-terminus assumed; SMILES CCCCCCCCCCCCCCCC(=O)N[C@@H](CCC(=O)NCCCC[C@H](NC(=O)[C@H](CO)NC(=O)[C@H](CC(=O)O)NC(=O)[C@H](CC(C)C)NC(=O)[C@H](Cc1ccc(O)cc1)NC(=O)[C@H](CCCCN)NC(=O)[C@H](CO)NC(=O)[C@H](Cc1ccc(O)cc1)NC(=O)[C@H](CC(=O)O)NC(=O)[C@H](CO)NC(=O)[C@@H](NC(=O)[C@H](Cc1ccccc1)NC(=O)[C@@H](NC(=O)CNC(=O)[C@H](CCC(=O)O)NC(=O)[C@H](CO)NC(=O)[C@@H](N)Cc1c[nH]cn1)[C@@H](C)O)[C@@H](C)O)C(=O)N[C@@H](CCCNC(=N)N)C(=O)N[C@@H](C)C(=O)N[C@@H](CCC(=O)O)C(=O)N[C@@H](CC(=O)O)C(=O)N[C@@H](Cc1ccccc1)C(=O)N[C@H](C(=O)N[C@@H](CCC(=O)O)C(=O)N[C@@H](Cc1c[nH]c2ccccc12)C(=O)N[C@@H](CC(C)C)C(=O)N[C@H](C(=O)N[C@@H](C)C(=O)NCC(=O)NCC(N)=O)C(C)C)C(C)C)C(=O)O) [g639] | 82.1 | 0.244 | 82.1
3 | HGQGTFTSDYSKYLDSK([γGlu-Palmitoyl])RARDFVEWLVAGG-NH2 (N-terminus assumed; SMILES CCCCCCCCCCCCCCCC(=O)N[C@@H](CCC(=O)NCCCC[C@H](NC(=O)[C@H](CO)NC(=O)[C@H](CC(=O)O)NC(=O)[C@H](CC(C)C)NC(=O)[C@H](Cc1ccc(O)cc1)NC(=O)[C@H](CCCCN)NC(=O)[C@H](CO)NC(=O)[C@H](Cc1ccc(O)cc1)NC(=O)[C@H](CC(=O)O)NC(=O)[C@H](CO)NC(=O)[C@@H](NC(=O)[C@H](Cc1ccccc1)NC(=O)[C@@H](NC(=O)CNC(=O)[C@H](CCC(N)=O)NC(=O)CNC(=O)[C@@H](N)Cc1c[nH]cn1)[C@@H](C)O)[C@@H](C)O)C(=O)N[C@@H](CCCNC(=N)N)C(=O)N[C@@H](C)C(=O)N[C@@H](CCCNC(=N)N)C(=O)N[C@@H](CC(=O)O)C(=O)N[C@@H](Cc1ccccc1)C(=O)N[C@H](C(=O)N[C@@H](CCC(=O)O)C(=O)N[C@@H](Cc1c[nH]c2ccccc12)C(=O)N[C@@H](CC(C)C)C(=O)N[C@H](C(=O)N[C@@H](C)C(=O)NCC(=O)NCC(N)=O)C(C)C)C(C)C)C(=O)O) [g660] | 1.52 | 1.06 | 332

The remaining lines, values ahead:

Row | cAMP EC50 (assay 1) (human glucagon receptor) [nM] | cAMP EC50 (assay 1) (human GLP-1 receptor) [nM] | cAMP EC50 (assay 1) [1] [nM] | Binder
4 | 0.00465 | 0.0702 | 47.9 | HSQGTFTSDYSKYLDSK([γGlu-Palmitoyl])RARDFVEWLVAGG-NH2 (N-terminus assumed; SMILES CCCCCCCCCCCCCCCC(=O)N[C@@H](CCC(=O)NCCCC[C@H](NC(=O)[C@H](CO)NC(=O)[C@H](CC(=O)O)NC(=O)[C@H](CC(C)C)NC(=O)[C@H](Cc1ccc(O)cc1)NC(=O)[C@H](CCCCN)NC(=O)[C@H](CO)NC(=O)[C@H](Cc1ccc(O)cc1)NC(=O)[C@H](CC(=O)O)NC(=O)[C@H](CO)NC(=O)[C@@H](NC(=O)[C@H](Cc1ccccc1)NC(=O)[C@@H](NC(=O)CNC(=O)[C@H](CCC(N)=O)NC(=O)[C@H](CO)NC(=O)[C@@H](N)Cc1c[nH]cn1)[C@@H](C)O)[C@@H](C)O)C(=O)N[C@@H](CCCNC(=N)N)C(=O)N[C@@H](C)C(=O)N[C@@H](CCCNC(=N)N)C(=O)N[C@@H](CC(=O)O)C(=O)N[C@@H](Cc1ccccc1)C(=O)N[C@H](C(=O)N[C@@H](CCC(=O)O)C(=O)N[C@@H](Cc1c[nH]c2ccccc12)C(=O)N[C@@H](CC(C)C)C(=O)N[C@H](C(=O)N[C@@H](C)C(=O)NCC(=O)NCC(N)=O)C(C)C)C(C)C)C(=O)O) [g776]
5 | 0.424 | 0.191 | 97.2 | HSQGTFTSDYSEYLDSK([γGlu-Palmitoyl])RARDFVEWLVAGG-NH2 (N-terminus assumed; SMILES CCCCCCCCCCCCCCCC(=O)N[C@@H](CCC(=O)NCCCC[C@H](NC(=O)[C@H](CO)NC(=O)[C@H](CC(=O)O)NC(=O)[C@H](CC(C)C)NC(=O)[C@H](Cc1ccc(O)cc1)NC(=O)[C@H](CCC(=O)O)NC(=O)[C@H](CO)NC(=O)[C@H](Cc1ccc(O)cc1)NC(=O)[C@H](CC(=O)O)NC(=O)[C@H](CO)NC(=O)[C@@H](NC(=O)[C@H](Cc1ccccc1)NC(=O)[C@@H](NC(=O)CNC(=O)[C@H](CCC(N)=O)NC(=O)[C@H](CO)NC(=O)[C@@H](N)Cc1c[nH]cn1)[C@@H](C)O)[C@@H](C)O)C(=O)N[C@@H](CCCNC(=N)N)C(=O)N[C@@H](C)C(=O)N[C@@H](CCCNC(=N)N)C(=O)N[C@@H](CC(=O)O)C(=O)N[C@@H](Cc1ccccc1)C(=O)N[C@H](C(=O)N[C@@H](CCC(=O)O)C(=O)N[C@@H](Cc1c[nH]c2ccccc12)C(=O)N[C@@H](CC(C)C)C(=O)N[C@H](C(=O)N[C@@H](C)C(=O)NCC(=O)NCC(N)=O)C(C)C)C(C)C)C(=O)O) [g835]
6 | 39.9 | 0.283 | 124 | HGEGTFTSDYSKYLDSK([γGlu-Palmitoyl])RAEDFVEWLVAGG-NH2 (N-terminus assumed; SMILES CCCCCCCCCCCCCCCC(=O)N[C@@H](CCC(=O)NCCCC[C@H](NC(=O)[C@H](CO)NC(=O)[C@H](CC(=O)O)NC(=O)[C@H](CC(C)C)NC(=O)[C@H](Cc1ccc(O)cc1)NC(=O)[C@H](CCCCN)NC(=O)[C@H](CO)NC(=O)[C@H](Cc1ccc(O)cc1)NC(=O)[C@H](CC(=O)O)NC(=O)[C@H](CO)NC(=O)[C@@H](NC(=O)[C@H](Cc1ccccc1)NC(=O)[C@@H](NC(=O)CNC(=O)[C@H](CCC(=O)O)NC(=O)CNC(=O)[C@@H](N)Cc1c[nH]cn1)[C@@H](C)O)[C@@H](C)O)C(=O)N[C@@H](CCCNC(=N)N)C(=O)N[C@@H](C)C(=O)N[C@@H](CCC(=O)O)C(=O)N[C@@H](CC(=O)O)C(=O)N[C@@H](Cc1ccccc1)C(=O)N[C@H](C(=O)N[C@@H](CCC(=O)O)C(=O)N[C@@H](Cc1c[nH]c2ccccc12)C(=O)N[C@@H](CC(C)C)C(=O)N[C@H](C(=O)N[C@@H](C)C(=O)NCC(=O)NCC(N)=O)C(C)C)C(C)C)C(=O)O) [g681]
